The values below are quoted from earlier work in paper PMC3654037.

As usually defined, the Kd is the free concentration of one partner at which half of the binding sites on the other are occupied at equilibrium, for simple one-to-one binding.

Among the targets are CD48 (Homo sapiens) (UniProt P09326); CD58 (Homo sapiens) (UniProt P19256); CD86 (Homo sapiens) (UniProt P42081); nectin-1 (Homo sapiens) (UniProt Q15223); nectin-2 (Homo sapiens) (UniProt Q92692); nectin-4 (Homo sapiens) (UniProt Q96NY8).
Chain of UniProt P42081 (P42081 24-247): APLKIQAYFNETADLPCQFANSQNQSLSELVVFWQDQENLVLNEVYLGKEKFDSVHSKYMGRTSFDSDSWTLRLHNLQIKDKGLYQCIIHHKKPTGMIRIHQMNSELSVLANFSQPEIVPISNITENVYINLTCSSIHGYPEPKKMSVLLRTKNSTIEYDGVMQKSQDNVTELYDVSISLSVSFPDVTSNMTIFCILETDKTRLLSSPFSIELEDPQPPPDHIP
Chain of UniProt P19256 (P19256 29-215): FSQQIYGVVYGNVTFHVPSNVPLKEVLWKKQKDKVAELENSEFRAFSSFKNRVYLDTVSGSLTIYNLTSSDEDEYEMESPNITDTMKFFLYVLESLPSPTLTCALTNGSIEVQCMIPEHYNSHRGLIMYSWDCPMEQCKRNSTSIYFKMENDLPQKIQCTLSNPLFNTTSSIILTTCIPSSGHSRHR
Chain of UniProt P09326 (P09326 27-220): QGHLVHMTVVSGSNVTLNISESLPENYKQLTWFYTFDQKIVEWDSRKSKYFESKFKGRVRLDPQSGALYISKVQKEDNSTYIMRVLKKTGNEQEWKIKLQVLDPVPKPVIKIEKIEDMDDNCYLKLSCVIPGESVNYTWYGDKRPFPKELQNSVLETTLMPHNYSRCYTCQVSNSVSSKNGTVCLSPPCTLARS

Turning to 2B4 (from UniProt Q9BZW8), the Kd with CD48 (Homo sapiens) is 10 µM.

CD2 (from UniProt P06729): the Kd with CD58 (Homo sapiens) is 10 µM. In the case of CD28 (from UniProt P10747), the Kd in the data set with CD86 (Homo sapiens) is 20 µM. For nectin-1 (from UniProt Q15223), in the data set with nectin-1 (Homo sapiens), the dissociation constant Kd is 17.5 µM. Take nectin-2 (from UniProt Q92692): the Kd with nectin-2 (Homo sapiens) was 0.4 µM.

Regarding nectin-4 (from UniProt Q96NY8), in the data set with nectin-4 (Homo sapiens), the Kd was 153 µM.
